B1: GpH7-A5/GpH7-B3 variant Y300_01G/GpL16-k0 (heterodimerized antibody, He Ab) (antibody, human IgG1, kappa)
heavy 1: not shown
heavy 2: not shown
light: DIVMTQSPLSLPVTPGEPASISCQASESLVHSNRNTYLHWYLQKPGQSPQLLIYKVSNRFSGVPDRFSGSGSGTDFTLKISRVEAEDVGVYYCSQNTHVPPTFGQGTKVEIERTVAAPSVFIFPPSDEQLKSGTASVVCLLNNFYPREAKVQWKVDNALQSGNSQESVTEQDSKDSTYSLSSTLTLSKADYEKHKVYACEVTHQGLSSPVTKSFNRGEC
notes: Anti-glypican-3 IgG1; alteration only in the GpH7-B3 (K439E) chain; other H chain is GpH7-A5 (D356K/H435R)
B2: GpH7-A5/GpH7-B3 variant T335_16H/GpL16-k0 (heterodimerized antibody, He Ab) (antibody, human IgG1, kappa)
heavy 1: not shown
heavy 2: not shown
light: B1 light
notes: as for B1
B3: GpH7-A5/GpH7-B3 variant T335_18N/GpL16-k0 (heterodimerized antibody, He Ab) (antibody, human IgG1, kappa)
heavy 1: not shown
heavy 2: not shown
light: B1 light
notes: as for B1
B4: GpH7-A5/GpH7-B3 variant T335_19Q/GpL16-k0 (heterodimerized antibody, He Ab) (antibody, human IgG1, kappa)
heavy 1: not shown
heavy 2: not shown
light: B1 light
notes: as for B1
B5: GpH7-A5/GpH7-B3 variant T335_20W/GpL16-k0 (heterodimerized antibody, He Ab) (antibody, human IgG1, kappa)
heavy 1: not shown
heavy 2: not shown
light: B1 light
notes: as for B1
B6: GpH7-A5/GpH7-B3 variant Y296_06M/GpL16-k0 (heterodimerized antibody, He Ab) (antibody, human IgG1, kappa)
heavy 1: not shown
heavy 2: not shown
light: B1 light
notes: as for B1
B7: GpH7-A5/GpH7-B3 variant Y296_10E/GpL16-k0 (heterodimerized antibody, He Ab) (antibody, human IgG1, kappa)
heavy 1: not shown
heavy 2: not shown
light: B1 light
notes: as for B1
B8: GpH7-A5/GpH7-B3 variant Y296_11K/GpL16-k0 (heterodimerized antibody, He Ab) (antibody, human IgG1, kappa)
heavy 1: not shown
heavy 2: not shown
light: B1 light
notes: as for B1
B9: GpH7-A5/GpH7-B3 variant Y296_12R/GpL16-k0 (heterodimerized antibody, He Ab) (antibody, human IgG1, kappa)
heavy 1: not shown
heavy 2: not shown
light: B1 light
notes: as for B1
B10: GpH7-A5/GpH7-B3 variant Y296_13S/GpL16-k0 (heterodimerized antibody, He Ab) (antibody, human IgG1, kappa)
heavy 1: not shown
heavy 2: not shown
light: B1 light
notes: as for B1
B11: GpH7-A5/GpH7-B3 variant Y296_14T/GpL16-k0 (heterodimerized antibody, He Ab) (antibody, human IgG1, kappa)
heavy 1: not shown
heavy 2: not shown
light: B1 light
notes: as for B1
B12: GpH7-A5/GpH7-B3 variant Y296_16H/GpL16-k0 (heterodimerized antibody, He Ab) (antibody, human IgG1, kappa)
heavy 1: not shown
heavy 2: not shown
light: B1 light
notes: as for B1
B13: GpH7-A5/GpH7-B3 variant Y296_18N/GpL16-k0 (heterodimerized antibody, He Ab) (antibody, human IgG1, kappa)
heavy 1: not shown
heavy 2: not shown
light: B1 light
notes: as for B1
B14: GpH7-A5/GpH7-B3 variant Y296_19Q/GpL16-k0 (heterodimerized antibody, He Ab) (antibody, human IgG1, kappa)
heavy 1: not shown
heavy 2: not shown
light: B1 light
notes: as for B1
B15: GpH7-A5/GpH7-B3 variant Y296_20W/GpL16-k0 (heterodimerized antibody, He Ab) (antibody, human IgG1, kappa)
heavy 1: not shown
heavy 2: not shown
light: B1 light
notes: as for B1
B16: GpH7-A5/GpH7-B3 variant Y300_02A/GpL16-k0 (heterodimerized antibody, He Ab) (antibody, human IgG1, kappa)
heavy 1: not shown
heavy 2: not shown
light: B1 light
notes: as for B1
B17: GpH7-A5/GpH7-B3 variant Y300_03V/GpL16-k0 (heterodimerized antibody, He Ab) (antibody, human IgG1, kappa)
heavy 1: not shown
heavy 2: not shown
light: B1 light
notes: as for B1
B18: GpH7-A5/GpH7-B3 variant Y300_06M/GpL16-k0 (heterodimerized antibody, He Ab) (antibody, human IgG1, kappa)
heavy 1: not shown
heavy 2: not shown
light: B1 light
notes: as for B1
B19: GpH7-A5/GpH7-B3 variant Y300_08L/GpL16-k0 (heterodimerized antibody, He Ab) (antibody, human IgG1, kappa)
heavy 1: not shown
heavy 2: not shown
light: B1 light
notes: as for B1
B20: GpH7-A5/GpH7-B3 variant Y300_09D/GpL16-k0 (heterodimerized antibody, He Ab) (antibody, human IgG1, kappa)
heavy 1: not shown
heavy 2: not shown
light: B1 light
notes: as for B1
B21: GpH7-A5/GpH7-B3 variant Y300_10E/GpL16-k0 (heterodimerized antibody, He Ab) (antibody, human IgG1, kappa)
heavy 1: not shown
heavy 2: not shown
light: B1 light
notes: as for B1
B22: GpH7-A5/GpH7-B3 variant Y300_11K/GpL16-k0 (heterodimerized antibody, He Ab) (antibody, human IgG1, kappa)
heavy 1: not shown
heavy 2: not shown
light: B1 light
notes: as for B1
B23: GpH7-A5/GpH7-B3 variant Y300_13S/GpL16-k0 (heterodimerized antibody, He Ab) (antibody, human IgG1, kappa)
heavy 1: not shown
heavy 2: not shown
light: B1 light
notes: as for B1

Each binder was assayed against T1, FcγRIa (human, UniProt P12314 16-292) (assay: SPR (Biacore), antibody captured on antigen-peptide chip, FcγRIa as analyte; binding activity relative to control GpH7-A5/GpH7-B3/GpL16-k0 (HeCon Ab) x100).
T1 construct: extracellular domain; Soluble extracellular domain with C-terminal His tag, expressed in FreeStyle293 cells; analyte in Biacore; also called FcgRI; CD64; not shown: His tag attached to the C terminus
T1 sequence (P12314 16-292): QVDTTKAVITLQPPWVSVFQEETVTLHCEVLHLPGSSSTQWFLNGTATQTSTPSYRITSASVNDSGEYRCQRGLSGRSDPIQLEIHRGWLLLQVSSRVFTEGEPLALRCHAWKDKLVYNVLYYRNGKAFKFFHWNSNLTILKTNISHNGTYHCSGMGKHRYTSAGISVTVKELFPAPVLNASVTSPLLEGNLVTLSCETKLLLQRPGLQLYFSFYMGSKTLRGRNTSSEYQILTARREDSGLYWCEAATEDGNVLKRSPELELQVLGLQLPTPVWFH
Method: Analysis of interaction between objective antibody and the FcγR was carried out using Biacore T100 (GE Healthcare). HBS-EP+ (GE Healthcare) was used as the running buffer, and the measurement temperature was set to 25° C. Chips produced by immobilizing the antigen peptide by the amine coupling method to a Series S Sencor Chip CM5 (GE Healthcare), or alternatively, chips produced by allowing preliminarily biotinylated antigen peptides to interact with and immobilize onto a Series S Sensor Chip SA (certified) (GE Healthcare) were used. Antibodies of interest were captured onto an antigen peptide-immobilized chip, and allowed to interact to each FcγR diluted with running buffer. To regenerate and repeatedly use the chip, the antibodies captured on the chip were washed off by reacting 10 mM glycine-HCl, pH 1.5.
For B1, the He/Con_1a was 116 % of control (=100).
B2 was tested, and the He/Con_1a was 106 % of control (=100).
With B3 the He/Con_1a was 106 % of control (=100).
B4 was tested, and the He/Con_1a was 105 % of control (=100).
In the case of B5, the He/Con_1a is reported as 106 % of control (=100).
In the case of B6, the He/Con_1a is reported as 104 % of control (=100).
B7 was tested, and the He/Con_1a was 106 % of control (=100).
With B8 the He/Con_1a was 105 % of control (=100).
With B9 the He/Con_1a was 106 % of control (=100).
With B10 the He/Con_1a was 105 % of control (=100).
In the case of B11, the He/Con_1a is reported as 105 % of control (=100).
In the case of B12, the He/Con_1a is reported as 106 % of control (=100).
For B13, the He/Con_1a was 106 % of control (=100).
For B14, the He/Con_1a was 112 % of control (=100).
In the case of B15, the He/Con_1a is reported as 111 % of control (=100).
With B16 the He/Con_1a was 112 % of control (=100).
In the case of B17, the He/Con_1a is reported as 117 % of control (=100).
In the case of B18, the He/Con_1a is reported as 112 % of control (=100).
With B19 the He/Con_1a was 113 % of control (=100).
With B20 the He/Con_1a was 112 % of control (=100).
For B21, the He/Con_1a was 114 % of control (=100).
B22 was tested, and the He/Con_1a was 107 % of control (=100).
With B23 the He/Con_1a was 111 % of control (=100).
